From publication PMC4408062

Biological target: Recombinant human PCSK9 (proprotein convertase subtilisin/kexin type 9) (human) (UniProt Q8NBP7)
Chain of UniProt Q8NBP7 (Q8NBP7 31-692): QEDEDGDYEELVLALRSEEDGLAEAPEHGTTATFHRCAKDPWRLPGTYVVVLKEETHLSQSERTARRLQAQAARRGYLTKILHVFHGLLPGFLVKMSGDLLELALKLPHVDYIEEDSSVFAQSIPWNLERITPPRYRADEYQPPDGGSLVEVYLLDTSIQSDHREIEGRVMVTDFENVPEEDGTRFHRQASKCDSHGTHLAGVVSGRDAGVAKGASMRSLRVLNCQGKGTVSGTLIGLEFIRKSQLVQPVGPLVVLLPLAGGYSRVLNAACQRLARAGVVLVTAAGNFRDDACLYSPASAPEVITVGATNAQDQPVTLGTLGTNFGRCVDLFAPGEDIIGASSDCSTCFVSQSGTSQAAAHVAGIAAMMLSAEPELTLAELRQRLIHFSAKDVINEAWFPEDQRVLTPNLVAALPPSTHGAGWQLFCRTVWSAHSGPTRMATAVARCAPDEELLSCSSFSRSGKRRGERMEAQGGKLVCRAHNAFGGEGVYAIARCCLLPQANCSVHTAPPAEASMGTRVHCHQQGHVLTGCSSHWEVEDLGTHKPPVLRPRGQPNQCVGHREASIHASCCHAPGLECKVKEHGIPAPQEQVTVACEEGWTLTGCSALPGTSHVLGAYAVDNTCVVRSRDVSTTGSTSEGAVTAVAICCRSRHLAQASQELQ

Question: With LDL (low density lipoprotein particle) as the substance, how does the internalisation of PCSK9-488/J16 complexes in APLP2 siRNA treated HepG2 cells with 2.5 μg/ml LDL read?
Answer: Its internalisation of PCSK9-488/J16 complexes in APLP2 siRNA treated HepG2 cells with 2.5 μg/ml LDL is 2.5 fold.
